Among the data in article PMC10496494 are Kd, koff and kon values, retold here.

Assay [1] addresses NPM1 (human wildtype nucleophosmin, residues 1 to 290) (human) (UniProt P06748). The assay is described as follows: SPR; Biacore T200; NPM1 immobilised on CM5 chip by amine coupling, DDX24 injected in a concentration series; PBS with 0.05% Tween-20 and 1% DMSO, pH 7.4, 25 °C; Langmuir 1:1 binding model.
For assay [2], the target named is DDX24^E271K (DDX24 with the p.Glu271Lys mutation of MOVLD patients) (human) (UniProt Q9GZR7). The assay is described as follows: SPR; Biacore T200; DDX24 immobilised on CM5 chip by amine coupling, NPM1 injected in a concentration series; PBS with 0.05% Tween-20 and 1% DMSO, pH 7.4, 25 °C; Langmuir 1:1 binding model.

NPM1 (human wildtype nucleophosmin, residues 1 to 290) (human), sequence (P06748 1-290): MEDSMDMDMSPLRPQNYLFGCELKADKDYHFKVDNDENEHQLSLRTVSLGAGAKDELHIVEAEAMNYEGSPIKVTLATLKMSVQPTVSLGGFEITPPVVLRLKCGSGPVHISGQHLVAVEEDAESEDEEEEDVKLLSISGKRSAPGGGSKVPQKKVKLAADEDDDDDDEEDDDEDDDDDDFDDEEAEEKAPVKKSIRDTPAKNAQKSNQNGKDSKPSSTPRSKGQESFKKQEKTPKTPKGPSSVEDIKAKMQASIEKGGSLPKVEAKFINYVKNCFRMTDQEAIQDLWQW
NPM1 (human wildtype nucleophosmin, residues 1 to 290), sequence (P06748 1-290): as above

In assay [1], “DDX24^E271K (DDX24 with the p.Glu271Lys mutation of MOVLD patients) (from UniProt Q9GZR7 28-859) (enzyme)” yielded a Kd of 5.5 nM, a koff of 0.00316 s⁻¹ and an association rate constant (kon) of 575000 M⁻¹ s⁻¹.

With “NPM1 (human wildtype nucleophosmin, residues 1 to 290) (from UniProt P06748 1-290) (natural protein)”, in assay [2], the Kd is 2.92 nM, the koff worked out at 0.00165 s⁻¹ and the on-rate constant (kon) amounted to 564000 M⁻¹ s⁻¹.
